In patent US20220265772A1, “USES OF DAN FAMILY BMP ANTAGONISTS FOR INHIBITING OCULAR NEOVASCULARIZATION AND TREATING OCULAR CONDITIONS” (9636137 Canada Inc., priority 2019, published 2022):

Assays:
[1] = tested on: mouse choroidal explants; test: Choroidal explant sprouting in culture; type: cell-based; details: P5 mouse choroidal explants exposed to serum and VEGF
Method: FIG. 1 is a panel with pictures, bar graphs, and graphs showing that Dand5 reduces VEGF-mediated sprouting angiogenesis in cultured endothelial cells. FIG. 1A: HUVECs grown in a fibrinogen gel were treated with VEGF to induce tube formation in the presence or absence of Dand5. […] FIG. 1B: HUVECs were plated to confluency and scratched to stimulate a wound in the presence or absence of Dand5. Scale bar, 100 μm. FIG. 1C: Quantification of tube formation in FIG. 1A n=3, *p<0.05, **p<0.01). FIG. 1E: Choroids were isolated from wild-type mice and cultured in vitro in the absence or presence of Dand5. […] FIG. 1F: Quantification of sprouting areas in choroidal sprouts (n=3, ***p<0.0001). […] FIG. 1H: HUVECs were cultured in the presence or absence of Dand5 and analyzed by immunofluorescence using antibodies against phospho-Histone 3 (PH3), a marker of cellular mitosis, and phalloidin and DAPI (nuclei). […] FIG. 1I: Quantification immunofluorescent staining of phospho-histone 3 positive cells. […] FIG. 1K: Quantification of immunofluorescent staining of cleaved caspase 3 (n=2, n.s.).
To evaluate the cellular mechanisms underlying the inhibitory effects of DAND5 on endothelial cells sprouting, we assessed the effects of DAND5 on endothelial cell migration and proliferation. […]
We exposed or not HUVECs to recombinant DAND5 and measured the concentration of free radicals using DCFDA and MitoSoxRed™. […]

[2] = tested on: VEGF signaling; test: VEGF signaling and VEGF receptor levels in HUVECs (immunoblotting); type: cell-based, human
Method: FIG. 6A: HUVECs were grown in complete media were in the absence or presence of Dand5 or IWR1 for up to 24 hours. Protein extracts were analyzed by immunoblotting (representative image of n=3 experiments). FIG. 6C: HUVECs were grown in low serum media for 16 h in the absence or presence of 60 ng/mL of Dand5. VEGF signaling was induced by addition of 25 ng/mL of rhVEGF for up to 60 minutes. Protein extracts were analyzed by immunoblotting (representative image of n=3). FIG. 6D: Quantification of the mean gray value of phosphorylated proteins normalized to the mean gray value of β-Actin of immunoblots in FIG. 6C (n=3, ns). FIG. 6E: HUVECs were plated in the presence or absence of 60 ng/mL of Dand5. Proteins extracts were analyzed for expression of VEGF receptors (representative image of n=3).
Cells were washed with cold PBS and extracted in Laemmli's buffer, followed by sonication. Samples were run on SDS-PAGE gels and transferred onto nitrocellulose membranes. Membranes were blocked with 5% Bovine Serum Albumin (BSA) and probed with primary antibodies overnight at 4° C.: beta-Catenin (Cell Signaling Technology), phospho-beta-catenin (Cell Signaling Technology), Axin2 (Cell Signaling Technology), beta-Actin (Santa Cruz Technologies). HRP-conjugated secondary antibodies (Vector Laboratories) were used to detect primary antibodies.
HUVECs were starved overnight in the presence or absence of DAND5, followed by VEGF stimulation for up to 60 minutes. […] Likewise, VEGFR2 and VEGFR1 levels were unaffected upon HUVECs exposure to DAND5 for 0.5-24 h (FIG. 6 E, F).

[3] = tested on: human pluripotent stem cells / stem cell-derived human cones; test: Cone photoreceptor differentiation, maintenance and survival (earlier study and unpublished work); type: cell-based; details: in vitro, unpublished work
Text: Inactivation of DAND5 in mice leads to multiple laterality and cardiovascular defects and a significant proportion of animals die perinatally. […] However, prior to the present invention, it was unknown that DAND5, or any of the six other members of the DAN family of BMP antagonists, could play a role in inhibiting and preventing ocular neovascularization and pathological angiogenesis.

[4] = tested on: human pluripotent stem cells / stem cell-derived human cones; details: cited from earlier work
[5] = tested on: Wnt signaling; details: previous study (5); cited from earlier work

- VEGFR2 phosphorylation at Y1175 ([2]; HUVECs cultured in the presence of DAND5): unaffected
- VEGFR2 and VEGFR1 levels ([2]; HUVECs exposed for 0.5-24 h): unaffected
B1: DAND5: human recombinant DAND5/COCO biologically active fragment produced in E. coli, predicted 18.2 kDa monomer, R&D systems 3047-CC-050 (protein)
chain: MRPEPQSPRPQSWAAANQTWALGPGALPPLVPASALGSWKAFLGLQKARQLGMGRLQRGQDEVAAVTLPLNPQEVIQGMCKAVPFVQVFSRPGCSAIRLRNHLCFGHCSSLYIPGSDPTPLVLCNSCMPARKRWAPVVLWCLTGSSASRRRVKISTMLIEGCHCSPKA
- growth of choroidal explants [1]: inhibited the growth of P5 mouse choroidal explants exposed to serum and VEGF
- VEGF-induced phosphorylation of VEGF downstream effectors ([2]; HUVECs starved overnight with DAND5, VEGF stimulation up to 60 minutes): no significant decrease in VEGF-induced phosphorylation of VEGF downstream effectors
- survival of stem cell-derived human cones [3]: displays pro-survival activities
- cone photoreceptor differentiation and maintenance ([4]; recent study (16)): potent inducer of cone photoreceptor differentiation and maintenance
- differentiation of human pluripotent stem cells into cone photoreceptors ([4]; reference (16)): can promote the differentiation of human pluripotent stem cells into cone photoreceptors
- Wnt signaling in photoreceptors [5]: potent inhibitor of Wnt signaling in photoreceptors
